{"source": "ChEMBL document CHEMBL1649220", "about": "“New variant of CTX-M-type extended-spectrum beta-lactamases, CTX-M-71, with a Gly238Cys substitution in a Klebsiella pneumoniae isolate from Bulgaria” (2009)", "proteins": {"B1": {"name": "Beta-lactamase AH27 CTX-M-15 (Klebsiella pneumoniae), Q2PUH3 (protein)", "chain": "MVKKSLRQFTLMATATVTLLLGSVPLYAQTADVQQKLAELERQSGGRLGVALINTADNSQILYRADERFAMCSTSKVMAAAAVLKKSESEPNLLNQRVEIKKSDLVNYNPIAEKHVNGTMSLAELSAAALQYSDNVAMNKLIAHVGGPASVTAFARQLGDETFRLDRTEPTLNTAIPGDPRDTTSPRAMAQTLRNLTLGKALGDSQRAQLVTWMKGNTTGAASIQAGLPASWVVGDKTGSGGYGTTNDIAVIWPKDRAPLILVTYFTQPQPKAESRRDVLASAAKIVTDGL"}, "B2": {"name": "Extended spectrum beta-lactamase CTX-M-71 (Klebsiella pneumoniae), C8YUV9 (protein)", "chain": "B1 chain with G241C"}}, "key": {"[1]": {"substrate": "C[C@@H](O)[C@H]1C(=O)N2C(C(=O)O)=C(S[C@@H]3CN[C@H](CNS(N)(=O)=O)C3)[C@H](C)[C@H]12", "experiment": "(§1) Activity of Klebsiella pneumoniae AH27 CTX-M-15 beta-lactamase"}, "[2]": {"substrate": "CO/N=C(\\C(=O)N[C@@H]1C(=O)N2C(C(=O)O)=C(COC(C)=O)CS[C@H]12)c1csc(N)n1", "experiment": "as §1"}, "[3]": {"substrate": "CC1(C)S[C@@H]2[C@H](NC(=O)Cc3ccccc3)C(=O)N2[C@H]1C(=O)O", "experiment": "as §1"}, "[4]": {"substrate": "CO/N=C(\\C(=O)N[C@@H]1C(=O)N2C(C(=O)O)=C(COC(N)=O)CS[C@H]12)c1ccco1", "experiment": "as §1"}, "[5]": {"substrate": "C[C@@H](O)[C@H]1C(=O)N2C(C(=O)O)=C(SCCNC=N)C[C@H]12", "experiment": "as §1"}, "[6]": {"substrate": "CC(C)(O/N=C(\\C(=O)N[C@@H]1C(=O)N2C(C(=O)[O-])=C(C[n+]3ccccc3)CS[C@H]12)c1csc(N)n1)C(=O)O", "experiment": "as §1"}, "[7]": {"substrate": "O=C(Cc1cccs1)N[C@@H]1C(=O)N2C(C(=O)[O-])=C(C[n+]3ccccc3)CS[C@H]12", "experiment": "as §1"}, "[8]": {"substrate": "C[C@@H](O)[C@H]1C(=O)N2C(C(=O)O)=C(S[C@@H]3CN[C@H](C(=O)N(C)C)C3)[C@H](C)[C@H]12", "experiment": "as §1"}, "[9]": {"substrate": "C[C@@H](O)[C@H]1C(=O)N2C(C(=O)O)=C(S[C@@H]3CN[C@H](CNS(N)(=O)=O)C3)[C@H](C)[C@H]12", "experiment": "(§2) Activity of Klebsiella pneumoniae AH24-270 CTX-M-71 beta-lactamase"}, "[10]": {"substrate": "C[C@H]1[C@H](NC(=O)/C(=N\\OC(C)(C)C(=O)O)c2csc(N)n2)C(=O)N1S(=O)(=O)O", "experiment": "as §2"}, "[11]": {"substrate": "CO/N=C(\\C(=O)N[C@@H]1C(=O)N2C(C(=O)O)=C(COC(C)=O)CS[C@H]12)c1csc(N)n1", "experiment": "as §2"}, "[12]": {"substrate": "CC1(C)S[C@@H]2[C@H](NC(=O)Cc3ccccc3)C(=O)N2[C@H]1C(=O)O", "experiment": "as §2"}, "[13]": {"substrate": "CO/N=C(\\C(=O)N[C@@H]1C(=O)N2C(C(=O)O)=C(COC(N)=O)CS[C@H]12)c1ccco1", "experiment": "as §2"}, "[14]": {"substrate": "CC1(C)S[C@@H]2[C@H](NC(=O)[C@H](N)c3ccc(O)cc3)C(=O)N2[C@H]1C(=O)O", "experiment": "as §2"}, "[15]": {"substrate": "C[C@@H](O)[C@H]1C(=O)N2C(C(=O)O)=C([C@H]3CCCO3)S[C@H]12", "experiment": "as §2"}, "[16]": {"substrate": "C[C@@H](O)[C@H]1C(=O)N2C(C(=O)O)=C(SCCNC=N)C[C@H]12", "experiment": "as §2"}, "[17]": {"substrate": "CC(C)(O/N=C(\\C(=O)N[C@@H]1C(=O)N2C(C(=O)[O-])=C(C[n+]3ccccc3)CS[C@H]12)c1csc(N)n1)C(=O)O", "experiment": "as §2"}, "[18]": {"substrate": "CCN1CCN(C(=O)N[C@@H](C(=O)N[C@@H]2C(=O)N3[C@@H]2SC(C)(C)[C@@H]3C(=O)O)c2ccccc2)C(=O)C1=O", "experiment": "as §2"}, "[19]": {"substrate": "O=C(Cc1cccs1)N[C@@H]1C(=O)N2C(C(=O)[O-])=C(C[n+]3ccccc3)CS[C@H]12", "experiment": "as §2"}, "[20]": {"substrate": "C[C@@H](O)[C@H]1C(=O)N2C(C(=O)O)=C(S[C@@H]3CN[C@H](C(=O)N(C)C)C3)[C@H](C)[C@H]12", "experiment": "as §2"}}, "note": "Residue numbers refer to the chain shown, from its start."}
{"protein": "B1", "values": [{"measurement": "kcat", "setting": "[1]", "result": "< 0.002", "unit": "s⁻¹"}, {"measurement": "Km", "setting": "[2]", "result": 26, "unit": "µM"}, {"measurement": "kcat", "setting": "[2]", "result": 176, "unit": "s⁻¹"}, {"measurement": "Km", "setting": "[3]", "result": 8.7, "unit": "µM"}, {"measurement": "kcat", "setting": "[3]", "result": 47, "unit": "s⁻¹"}, {"measurement": "Km", "setting": "[4]", "result": 180, "unit": "µM"}, {"measurement": "kcat", "setting": "[4]", "result": 45, "unit": "s⁻¹"}, {"measurement": "kcat", "setting": "[5]", "result": "< 0.17", "unit": "s⁻¹"}, {"measurement": "Km", "setting": "[6]", "result": 236, "unit": "µM"}, {"measurement": "kcat", "setting": "[6]", "result": 4.4, "unit": "s⁻¹"}, {"measurement": "Km", "setting": "[7]", "result": 39, "unit": "µM"}, {"measurement": "kcat", "setting": "[7]", "result": 188, "unit": "s⁻¹"}, {"measurement": "kcat", "setting": "[8]", "result": "< 0.004", "unit": "s⁻¹"}]}
{"protein": "B2", "values": [{"measurement": "kcat", "setting": "[9]", "result": "< 0.05", "unit": "s⁻¹"}, {"measurement": "Km", "setting": "[10]", "result": 10, "unit": "µM"}, {"measurement": "kcat", "setting": "[10]", "result": 0.84, "unit": "s⁻¹"}, {"measurement": "Km", "setting": "[11]", "result": 130, "unit": "µM"}, {"measurement": "kcat", "setting": "[11]", "result": 65, "unit": "s⁻¹"}, {"measurement": "Km", "setting": "[12]", "result": 4.9, "unit": "µM"}, {"measurement": "kcat", "setting": "[12]", "result": 58, "unit": "s⁻¹"}, {"measurement": "Km", "setting": "[13]", "result": 85, "unit": "µM"}, {"measurement": "kcat", "setting": "[13]", "result": 8.8, "unit": "s⁻¹"}, {"measurement": "Km", "setting": "[14]", "result": 5.2, "unit": "µM"}, {"measurement": "kcat", "setting": "[14]", "result": 49, "unit": "s⁻¹"}, {"measurement": "kcat", "setting": "[15]", "result": "< 0.46", "unit": "s⁻¹"}, {"measurement": "kcat", "setting": "[16]", "result": "< 0.07", "unit": "s⁻¹"}, {"measurement": "Km", "setting": "[17]", "result": 180, "unit": "µM"}, {"measurement": "kcat", "setting": "[17]", "result": 0.69, "unit": "s⁻¹"}, {"measurement": "Km", "setting": "[18]", "result": 3.2, "unit": "µM"}, {"measurement": "kcat", "setting": "[18]", "result": 27, "unit": "s⁻¹"}, {"measurement": "Km", "setting": "[19]", "result": 18, "unit": "µM"}, {"measurement": "kcat", "setting": "[19]", "result": 68, "unit": "s⁻¹"}, {"measurement": "kcat", "setting": "[20]", "result": "< 0.07", "unit": "s⁻¹"}]}
